How the values were obtained:
Test in all cases: fluorescence polarisation; fluorescence anisotropy; 2 µL additions of 40-90 µM human EFL1 titrated into 300 µL of 0.1 µM Lumio Green-labelled human SBDS-FlAsH construct; 25 °C; 50 mM Tris-HCl pH 8, 300 mM NaCl, 5 mM β-mercaptoethanol; fitted to a single-site or a two different binding sites model
Conditions in all cases: both partners purified
[1] = biological target: T1, human SBDS R126T with C-terminal FlAsH tag, labelled with Lumio Green (human, UniProt Q9Y3A5 1-250, R126T, Lumio Green dye (4',5'-bis(1,3,2-dithioarsolan-2-yl) fluorescein) on the C-terminal FlAsH tag)
T1 construct: human SBDS, SDS disease surface missense variant R126T (domain 2), in the three-domain protein; Missense variant found in patients; source: E. coli C41 (pRSET plasmid), purified by conventional chromatographic techniques; not shown: FlAsH tag (Cys-Cys-Pro-Gly-Cys-Cys), C-terminal, kept
T1 sequence (looked up): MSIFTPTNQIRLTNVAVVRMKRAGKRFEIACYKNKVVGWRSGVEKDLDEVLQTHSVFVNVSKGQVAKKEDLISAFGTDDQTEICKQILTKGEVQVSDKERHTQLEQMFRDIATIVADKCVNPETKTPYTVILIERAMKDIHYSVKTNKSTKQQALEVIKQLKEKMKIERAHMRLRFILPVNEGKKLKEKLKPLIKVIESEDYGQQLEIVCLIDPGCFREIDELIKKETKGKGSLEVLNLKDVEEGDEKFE

[2] = biological target: T2, human SBDS K67E with C-terminal FlAsH tag, labelled with Lumio Green (human, UniProt Q9Y3A5 1-250, K67E, Lumio Green dye (4',5'-bis(1,3,2-dithioarsolan-2-yl) fluorescein) on the C-terminal FlAsH tag)
T2 construct: human SBDS, SDS disease surface missense variant K67E (domain 1), in the three-domain protein; Missense variant found in patients; source: E. coli C41 (pRSET plasmid), purified by conventional chromatographic techniques; not shown: FlAsH tag (Cys-Cys-Pro-Gly-Cys-Cys), C-terminal, kept
T2 sequence (looked up): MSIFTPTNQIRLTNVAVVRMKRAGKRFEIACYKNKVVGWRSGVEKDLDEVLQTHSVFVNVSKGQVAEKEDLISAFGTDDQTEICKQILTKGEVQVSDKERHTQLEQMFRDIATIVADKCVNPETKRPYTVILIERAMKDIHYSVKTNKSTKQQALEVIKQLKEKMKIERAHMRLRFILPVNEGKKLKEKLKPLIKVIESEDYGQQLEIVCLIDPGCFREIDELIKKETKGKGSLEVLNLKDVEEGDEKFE

[3] = biological target: T3, human SBDS domains 1-2 (residues 1-174) with C-terminal FlAsH tag, labelled with Lumio Green (human, UniProt Q9Y3A5 1-174, Lumio Green dye (4',5'-bis(1,3,2-dithioarsolan-2-yl) fluorescein) on the C-terminal FlAsH tag)
T3 construct: human SBDS, domains 1-2, residues 1-174; also called construct consisting of domains 1-2 of SBDS; source: E. coli C41 (pRSET plasmid), purified by conventional chromatographic techniques; not shown: FlAsH tag (Cys-Cys-Pro-Gly-Cys-Cys), C-terminal, kept
T3 sequence (looked up): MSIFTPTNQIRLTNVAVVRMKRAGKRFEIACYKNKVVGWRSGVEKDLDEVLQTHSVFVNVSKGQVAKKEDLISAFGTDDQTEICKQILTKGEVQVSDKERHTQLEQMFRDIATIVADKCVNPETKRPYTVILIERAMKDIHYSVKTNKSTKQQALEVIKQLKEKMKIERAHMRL

[4] = biological target: T4, human SBDS R175W with C-terminal FlAsH tag, labelled with Lumio Green (human, UniProt Q9Y3A5 1-250, R175W, Lumio Green dye (4',5'-bis(1,3,2-dithioarsolan-2-yl) fluorescein) on the C-terminal FlAsH tag)
T4 construct: Missense variant found in patients; source: E. coli C41 (pRSET plasmid), purified by conventional chromatographic techniques; not shown: FlAsH tag (Cys-Cys-Pro-Gly-Cys-Cys), C-terminal, kept
T4 sequence (looked up): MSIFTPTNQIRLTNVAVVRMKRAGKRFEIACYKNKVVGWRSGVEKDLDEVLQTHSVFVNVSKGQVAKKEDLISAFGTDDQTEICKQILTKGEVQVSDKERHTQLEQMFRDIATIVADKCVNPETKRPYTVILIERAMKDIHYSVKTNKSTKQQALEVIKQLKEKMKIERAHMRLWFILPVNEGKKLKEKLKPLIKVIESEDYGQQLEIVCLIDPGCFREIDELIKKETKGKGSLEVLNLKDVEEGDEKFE

B1: human Elongation Factor Like-1 (EFL1) (enzyme)
chain: MVLNSLDKMIQLQKNTANIRNICVLAHVDHGKTTLADCLISSNGIISSRLAGKLRYMDSREDEQIRGITMKSSAISLHYATGNEEYLINLIDSPGHVDFSSEVSTAVRICDGCIIVVDAVEGVCPQTQAVLRQAWLENIRPVLVINKIDRLIVELKFTPQEAYSHLKNILEQINALTGTLFTSKVLEERAERETESQVNPNSEQGEQVYDWSTGLEDTDDSHLYFSPEQGNVVFTSAIDGWGFGIEHFARIYSQKIGIKKEVLMKTLWGDYYINMKAKKIMKGDQAKGKKPLFVQLILENIWSLYDAVLKKDKDKIDKIVTSLGLKIGAREARHSDPKVQINAICSQWLPISHAVLAMVCQKLPSPLDITAERVERLMCTGSQTFDSFPPETQALKAAFMKCGSEDTAPVIIFVSKMFAVDAKALPQNKPRPLTQEEIAQRRERARQRHAEKLAAAQGQAPLEPTQDGSAIETCPKGEEPRGDEQQVESMTPKPVLQEENNQESFIAFARVFSGVARRGKKIFVLGPKYSPLEFLRRVPLGFSAPPDGLPQVPHMAYCALENLYLLMGRELEYLEEVPPGNVLGIGGLQDFVLKSATLCSLPSCPPFIPLNFEATPIVRVAVEPKHPSEMPQLVKGMKLLNQADPCVQILIQETGEHVLVTAGEVHLQRCLDDLKERFAKIHISVSEPIIPFRETITKPPKVDMVNEEIGKQQKVAVIHQMKEDQSKIPEGIQVDSDGLITITTPNKLATLSVRAMPLPEEVTQILEENSDLIRSMEQLTSSLNEGENTHMIHQKTQEKIWEFKGKLEQHLTGRRWRNIVDQIWSFGPRKCGPNILVNKSEDFQNSVWTGPADKASKEASRYRDLGNSIVSGFQLATLSGPMCEEPLMGVCFVLEKWDLSKFEEQGASDLAKEGQEENETCSGGNENQELQDGCSEAFEKRTSQKGESPLTDCYGPFSGQLIATMKEACRYALQVKPQRLMAAMYTCDIMATGDVLGRVYAVLSKREGRVLQEEMKEGTDMFIIKAVLPVAESFGFADEIRKRTSGLASPQLVFSHWEIIPSDPFWVPTTEEEYLHFGEKADSENQARKYMNAVRKRKGLYVEEKIVEHAEKQRTLSKNK
notes: human EFL1, GTPase, said to comprise 1120 residues; the expressed protein is fused to a TEV recognition site and a hexahistidine tag at the C-terminus; also called human EFL1; GTPase Elongation Factor Like-1; source: S. cerevisiae BCY123 (pRS426 backbone, GAL1/10 promoter), purified
[1]
  Kd1 (first binding site, two different binding sites model): 9.3 ± 1.7 µM
  Kd2 (second binding site, two different binding sites model): 2.5 ± 0.2 µM
[2]
  Kd1 (first binding site, two different binding sites model): 7.2 ± 2 µM
  Kd2 (second binding site, two different binding sites model): 3 ± 1 µM
[3]
  Kd1 (first binding site, two different binding sites model): 11.3 ± 1.8 µM
  Kd2 (second binding site, two different binding sites model): 3.9 ± 0.2 µM
[4]
  Kd1 (first binding site, two different binding sites model): 12 ± 4 µM
  Kd2 (second binding site, two different binding sites model): 3.3 ± 0.6 µM

Reference: paper PMC6321010, “Interaction of the GTPase Elongation Factor Like-1 with the Shwachman-Diamond Syndrome Protein and Its Missense Mutations” (International Journal of Molecular Sciences, 2018)
